Data from the supplement of paper PMC12764529.
± gives the half width of the 95% confidence interval.

Experiments:
[1] = folding stability dG unfold from chymotrypsin proteolysis; higher = more stable
Description: (§1)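 Folding stability of de novo designed mini-proteins (<80 aa, no Cys; designed by TrROS, TrMRF, ProteinMPNN and the joint model) was measured by cDNA display proteolysis with trypsin and chymotrypsin. Each protease was used at 11 concentrations in a threefold dilution series plus a no-protease condition. K50 was inferred by Bayesian fitting of sequencing counts, and dG unfold was derived against a sequence-predicted unfolded-state K50 (Tsuboyama et al. method). Sequences shown include variable-length N-terminal GS-type padding (SAGGSAGG...) inside a display construct carrying a PA tag. Rows were kept only if the AF2 dimer inter-PAE was >15, to exclude likely homo-oligomers.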

[2] = folding stability dG unfold (combined trypsin and chymotrypsin); higher = more stable
Description: as §1

Row | Sequence | folding stability dG unfold [1] | folding stability dG unfold [2]
1 | SAGGDKLGKPLGGKPVTFDISKEELSYNPSNGTWSKSVVTTPRTVFYPPDAEPDPAVFASGAGSVTLASAGG [r13_753_JUSTAS] | 0.281 ± 0.091 kcal/mol | -0.184 ± 0.077 kcal/mol
2 | SAGGEEPKRKTVEVPAGQPISELLDALKQYDEVQIRMGNGEEHEIPPNDPPDLEDLPLPPGNTFEIEVSAGG [r13_399_TrROS] | -0.126 ± 0.12 kcal/mol | < -1 kcal/mol
3 | SAGGFKIERERDPDNGIRKIEFRFPDNGYRVKATINPDNDKIHIWGPNPAIREALPELGITNVEVEPWSAGG [r13_511_TrROS] | -0.811 ± 0.78 kcal/mol | < -1 kcal/mol
4 | SAGGGAMLVGETTTSKWIEKTIRNENGEVETKKVKVTTKPVTYKLPDGTLATETKVTIIYPDGSTKEESAGG [r13_113_JUSTAS] | 0.103 ± 0.21 kcal/mol | -0.181 ± 0.31 kcal/mol
5 | SAGGGMEEVAKKLGVPEDARLEVLKVERYYYTREVRDPLFEEGKPVGEKIIPRPYYSEKVDYKLFDKPSAGG [r13_482_JUSTAS] | -0.288 ± 0.32 kcal/mol | < -1 kcal/mol
6 | SAGGGMKTSKVSTSTTTTTVPGTGAPVTVEVTSTTTTFGPNGPAVVTTTSLTYDEAGTPTTTTTTTLSAGGS [r16_200_JUSTAS] | 0.46 ± 0.11 kcal/mol | -0.133 ± 0.13 kcal/mol
7 | SAGGGSMVEKTISTTDPKYVKILKKLEEAPEDEVVTIKEPNKDIEVLSFDKVDDNYKLLMKLPPSILSAGGS [r16_404_JUSTAS] | -0.454 ± 0.38 kcal/mol | -0.773 ± 0.46 kcal/mol
8 | SAGGGSMVIPVSPEEKEAALKLLEALPSKDVKVTVTDPATGTTTTLTPEEAKKLIEATDTPLVLTLSSAGGS [r16_263_JUSTAS] | 2.92 ± 0.08 kcal/mol | 3.42 ± 0.16 kcal/mol
9 | SAGGISVEIYPPNGKKVELEGDTIPELMDKFPPGGNYVIKIEQPHVNPGNGKKQPMEMEFRVPPDDFSAGGS [r16_806_TrROS] | -0.202 ± 0.23 kcal/mol | -0.697 ± 0.33 kcal/mol
10 | SAGGKARITRIEAEPDPLRVEVEVELPDGRKVRAVAVVPPGEGGVARVRTAVDFGEGVVPAADIEIPPSAGG [r13_728_TrMRF] | 0.704 ± 0.016 kcal/mol | 0.236 ± 0.052 kcal/mol
11 | SAGGKKVIIPFKSPEQVKDWLENAPPGHDKVEIFSPETGYMAEFEVDPKENKIKEIKWERFDPDDGMFSAGG [r13_945_TrROS] | 0.0373 ± 0.28 kcal/mol | -0.372 ± 0.46 kcal/mol
12 | SAGGMGVRVEEKVLATSESSTPDGTPVTFTETETKITLPPGTVVTVKKLLETGGGGRKVLEETTSPLASAGG [r13_898_JUSTAS] | 0.092 ± 0.039 kcal/mol | -0.295 ± 0.14 kcal/mol
13 | SAGGMITLEEPELDPSRPVTRVKVLTEIPAPGGVPVVVETTYTDTRAPGDPSVTVVTSTTTVVPGAAGSAGG [r13_131_JUSTAS] | -0.0242 ± 0.055 kcal/mol | -0.834 ± 0.27 kcal/mol
14 | SAGGMKIEKTPVKIEKEGEDTVIEYKETEYLPDGTVKEYEGILRIPKNTGKITTLEKKLLSTEPILGSAGGS [r16_729_JUSTAS] | -0.377 ± 0.3 kcal/mol | < -1 kcal/mol
15 | SAGGMLITEEDLAALLAAVPPERPDAVVTLTVGRLQRILPGSTGENEPIPSSVEPSVVTLPVTVPPASAGGS [r16_708_JUSTAS] | -0.833 ± 0.24 kcal/mol | < -1 kcal/mol
16 | SAGGMLSRESTDPGPGRRTLTREEPLPDGTVPVTVTTESPDPSVTTVETRLVFPGPAVETPTRTAAPSAGGS [r16_684_JUSTAS] | 0.78 ± 0.038 kcal/mol | 0.281 ± 0.052 kcal/mol
17 | SAGGMTIVSSGPSIEQALQEAAEAGGDATVIYKEPESNTIITLDVKYDPAPRTITVLSETETPVPPLLSAGG [r13_309_JUSTAS] | 0.758 ± 0.079 kcal/mol | 0.17 ± 0.1 kcal/mol
18 | SAGGMTLDQLKENIKSVEVYPHPDGGYRMRVQIPQPNPDGKPKPREFNIPMPPNDPNMSADNVIDQILSAGG [r13_319_TrROS] | -0.353 ± 0.27 kcal/mol | < -1 kcal/mol
19 | SAGGMTTTTTLEVAPDTPYEAALAEIEAALAAAAAGRPVASSPVAARPGGARTLPLVVTDGAVTALGSAGGS [r8_7_JUSTAS] | 0.954 ± 0.041 kcal/mol | 0.35 ± 0.07 kcal/mol
20 | SAGGMTTTVTVTEDPATGTLTVPITIPRLDAEGNPTTEVLTVTLPASPEAEAAIAALAAALGIPAAASAGGS [r8_381_JUSTAS] | 0.943 ± 0.067 kcal/mol | 0.369 ± 0.1 kcal/mol
